biological target: T1, FcγRIIIa (human, UniProt P08637 17-208); assay: SPR (Biacore);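 further: antibody variants captured on an SPR sensor chip, with FcγRIIIa passed over as analyte in HBS-EP+ buffer at 25 °C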
T1 construct: extracellular domain; also called 3a; FcγRIIIa extracellular domain
T1 sequence (P08637 other isoform, or with tags, fused parts or gaps): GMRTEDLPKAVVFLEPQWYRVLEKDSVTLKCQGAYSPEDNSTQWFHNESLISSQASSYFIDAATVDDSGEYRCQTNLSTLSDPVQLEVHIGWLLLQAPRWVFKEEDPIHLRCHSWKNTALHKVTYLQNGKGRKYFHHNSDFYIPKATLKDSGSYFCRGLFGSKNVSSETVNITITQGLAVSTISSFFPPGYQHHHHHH

| Binder | He/Con 3a |
| --- | --- |
| GpH7-A5/GpH7-B3 variant L235_09D/GpL16-k0 (antibody, human IgG1, kappa, copies: 1 + 1 + 2) heavy 1: not shown heavy 2: not shown light: DIVMTQSPLSLPVTPGEPASISCQASESLVHSNRNTYLHWYLQKPGQSPQLLIYKVSNRFSGVPDRFSGSGSGTDFTLKISRVEAEDVGVYYCSQNTHVPPTFGQGTKVEIERTVAAPSVFIFPPSDEQLKSGTASVVCLLNNFYPREAKVQWKVDNALQSGNSQESVTEQDSKDSTYSLSSTLTLSKADYEKHKVYACEVTHQGLSSPVTKSFNRGEC | 88.5 % of GpH7-A5/GpH7-B3/GpL16-k0 |
| GpH7-A5/GpH7-B3 variant L235_19Q/GpL16-k0 (antibody, human IgG1, kappa, copies: 1 + 1 + 2) heavy 1: not shown heavy 2: not shown light: DIVMTQSPLSLPVTPGEPASISCQASESLVHSNRNTYLHWYLQKPGQSPQLLIYKVSNRFSGVPDRFSGSGSGTDFTLKISRVEAEDVGVYYCSQNTHVPPTFGQGTKVEIERTVAAPSVFIFPPSDEQLKSGTASVVCLLNNFYPREAKVQWKVDNALQSGNSQESVTEQDSKDSTYSLSSTLTLSKADYEKHKVYACEVTHQGLSSPVTKSFNRGEC | 68.1 % of GpH7-A5/GpH7-B3/GpL16-k0 |
| GpH7-A5/GpH7-B3 variant L328_06M/GpL16-k0 (antibody, human IgG1, kappa, copies: 1 + 1 + 2) heavy 1: not shown heavy 2: not shown light: DIVMTQSPLSLPVTPGEPASISCQASESLVHSNRNTYLHWYLQKPGQSPQLLIYKVSNRFSGVPDRFSGSGSGTDFTLKISRVEAEDVGVYYCSQNTHVPPTFGQGTKVEIERTVAAPSVFIFPPSDEQLKSGTASVVCLLNNFYPREAKVQWKVDNALQSGNSQESVTEQDSKDSTYSLSSTLTLSKADYEKHKVYACEVTHQGLSSPVTKSFNRGEC | 80.8 % of GpH7-A5/GpH7-B3/GpL16-k0 |
| GpH7-A5/GpH7-B3 variant L328_02A/GpL16-k0 (antibody, human IgG1, kappa, copies: 1 + 1 + 2) heavy 1: not shown heavy 2: not shown light: DIVMTQSPLSLPVTPGEPASISCQASESLVHSNRNTYLHWYLQKPGQSPQLLIYKVSNRFSGVPDRFSGSGSGTDFTLKISRVEAEDVGVYYCSQNTHVPPTFGQGTKVEIERTVAAPSVFIFPPSDEQLKSGTASVVCLLNNFYPREAKVQWKVDNALQSGNSQESVTEQDSKDSTYSLSSTLTLSKADYEKHKVYACEVTHQGLSSPVTKSFNRGEC | 81.3 % of GpH7-A5/GpH7-B3/GpL16-k0 |
| GpH7-A5/GpH7-B3 variant L235_16H/GpL16-k0 (antibody, human IgG1, kappa, copies: 1 + 1 + 2) heavy 1: not shown heavy 2: not shown light: DIVMTQSPLSLPVTPGEPASISCQASESLVHSNRNTYLHWYLQKPGQSPQLLIYKVSNRFSGVPDRFSGSGSGTDFTLKISRVEAEDVGVYYCSQNTHVPPTFGQGTKVEIERTVAAPSVFIFPPSDEQLKSGTASVVCLLNNFYPREAKVQWKVDNALQSGNSQESVTEQDSKDSTYSLSSTLTLSKADYEKHKVYACEVTHQGLSSPVTKSFNRGEC | 57.1 % of GpH7-A5/GpH7-B3/GpL16-k0 |
| GpH7-A5/GpH7-B3 variant L235_10E/GpL16-k0 (antibody, human IgG1, kappa, copies: 1 + 1 + 2) heavy 1: not shown heavy 2: not shown light: DIVMTQSPLSLPVTPGEPASISCQASESLVHSNRNTYLHWYLQKPGQSPQLLIYKVSNRFSGVPDRFSGSGSGTDFTLKISRVEAEDVGVYYCSQNTHVPPTFGQGTKVEIERTVAAPSVFIFPPSDEQLKSGTASVVCLLNNFYPREAKVQWKVDNALQSGNSQESVTEQDSKDSTYSLSSTLTLSKADYEKHKVYACEVTHQGLSSPVTKSFNRGEC | 85.6 % of GpH7-A5/GpH7-B3/GpL16-k0 |
| GpH7-A5/GpH7-B3 variant L328_14T/GpL16-k0 (antibody, human IgG1, kappa, copies: 1 + 1 + 2) heavy 1: not shown heavy 2: not shown light: DIVMTQSPLSLPVTPGEPASISCQASESLVHSNRNTYLHWYLQKPGQSPQLLIYKVSNRFSGVPDRFSGSGSGTDFTLKISRVEAEDVGVYYCSQNTHVPPTFGQGTKVEIERTVAAPSVFIFPPSDEQLKSGTASVVCLLNNFYPREAKVQWKVDNALQSGNSQESVTEQDSKDSTYSLSSTLTLSKADYEKHKVYACEVTHQGLSSPVTKSFNRGEC | 77.4 % of GpH7-A5/GpH7-B3/GpL16-k0 |
| GpH7-A5/GpH7-B3 variant L328_18N/GpL16-k0 (antibody, human IgG1, kappa, copies: 1 + 1 + 2) heavy 1: not shown heavy 2: not shown light: DIVMTQSPLSLPVTPGEPASISCQASESLVHSNRNTYLHWYLQKPGQSPQLLIYKVSNRFSGVPDRFSGSGSGTDFTLKISRVEAEDVGVYYCSQNTHVPPTFGQGTKVEIERTVAAPSVFIFPPSDEQLKSGTASVVCLLNNFYPREAKVQWKVDNALQSGNSQESVTEQDSKDSTYSLSSTLTLSKADYEKHKVYACEVTHQGLSSPVTKSFNRGEC | 51.1 % of GpH7-A5/GpH7-B3/GpL16-k0 |
| GpH7-A5/GpH7-B3 variant L328_03V/GpL16-k0 (antibody, human IgG1, kappa, copies: 1 + 1 + 2) heavy 1: not shown heavy 2: not shown light: DIVMTQSPLSLPVTPGEPASISCQASESLVHSNRNTYLHWYLQKPGQSPQLLIYKVSNRFSGVPDRFSGSGSGTDFTLKISRVEAEDVGVYYCSQNTHVPPTFGQGTKVEIERTVAAPSVFIFPPSDEQLKSGTASVVCLLNNFYPREAKVQWKVDNALQSGNSQESVTEQDSKDSTYSLSSTLTLSKADYEKHKVYACEVTHQGLSSPVTKSFNRGEC | 80.9 % of GpH7-A5/GpH7-B3/GpL16-k0 |
| GpH7-A5/GpH7-B3 variant L328_19Q/GpL16-k0 (antibody, human IgG1, kappa, copies: 1 + 1 + 2) heavy 1: not shown heavy 2: not shown light: DIVMTQSPLSLPVTPGEPASISCQASESLVHSNRNTYLHWYLQKPGQSPQLLIYKVSNRFSGVPDRFSGSGSGTDFTLKISRVEAEDVGVYYCSQNTHVPPTFGQGTKVEIERTVAAPSVFIFPPSDEQLKSGTASVVCLLNNFYPREAKVQWKVDNALQSGNSQESVTEQDSKDSTYSLSSTLTLSKADYEKHKVYACEVTHQGLSSPVTKSFNRGEC | 83.4 % of GpH7-A5/GpH7-B3/GpL16-k0 |
| GpH7-A5/GpH7-B3 variant L328_07I/GpL16-k0 (antibody, human IgG1, kappa, copies: 1 + 1 + 2) heavy 1: not shown heavy 2: not shown light: DIVMTQSPLSLPVTPGEPASISCQASESLVHSNRNTYLHWYLQKPGQSPQLLIYKVSNRFSGVPDRFSGSGSGTDFTLKISRVEAEDVGVYYCSQNTHVPPTFGQGTKVEIERTVAAPSVFIFPPSDEQLKSGTASVVCLLNNFYPREAKVQWKVDNALQSGNSQESVTEQDSKDSTYSLSSTLTLSKADYEKHKVYACEVTHQGLSSPVTKSFNRGEC | 86.4 % of GpH7-A5/GpH7-B3/GpL16-k0 |

— US20260167699A1 (Chugai, published 2026)
